# Columns and labels:
# [1] = biological target: T1, human C5 (purified human complement C5, Complement Technology #A120; also C5 in normal human serum) (human, UniProt P01031 19-673; P01031 678-1676); assay: ELISA, plate coated with human C5, anti-human IgG4-HRP detection
# T1 construct: domain: β chain;domain: α chain; Purified plasma protein bought from Complement Technology; also called hC5
# Excerpt: A plate was coated with human C5.
# [2] = biological target: T1, human C5 (purified human complement C5, …); assay: direct ELISA, plate coated with purified human C5, serially diluted mAb
# Excerpt: Direct antigen binding ELISA in which mAbs are serially diluted across microtiter plates coated with purified human C5.
# T1 sequence (P01031 19-673 limits assumed, chain 1 of 2): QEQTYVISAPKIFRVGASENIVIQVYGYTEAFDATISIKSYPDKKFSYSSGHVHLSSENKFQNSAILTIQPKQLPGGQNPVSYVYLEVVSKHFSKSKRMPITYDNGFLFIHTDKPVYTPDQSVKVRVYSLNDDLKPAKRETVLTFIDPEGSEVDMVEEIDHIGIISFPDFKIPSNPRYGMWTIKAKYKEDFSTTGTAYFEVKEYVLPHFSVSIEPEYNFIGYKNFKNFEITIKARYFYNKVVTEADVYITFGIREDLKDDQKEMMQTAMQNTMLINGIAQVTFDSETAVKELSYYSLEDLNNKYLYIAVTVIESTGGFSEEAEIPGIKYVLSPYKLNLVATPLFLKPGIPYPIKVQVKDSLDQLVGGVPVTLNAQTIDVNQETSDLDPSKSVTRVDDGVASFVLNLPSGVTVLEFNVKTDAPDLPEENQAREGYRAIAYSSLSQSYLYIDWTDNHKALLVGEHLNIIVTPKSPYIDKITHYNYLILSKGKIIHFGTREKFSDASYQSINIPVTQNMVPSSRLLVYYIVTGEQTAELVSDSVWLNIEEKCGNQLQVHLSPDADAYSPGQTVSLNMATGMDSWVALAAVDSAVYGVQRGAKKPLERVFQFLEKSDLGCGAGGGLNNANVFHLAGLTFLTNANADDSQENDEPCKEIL
# T1 sequence (P01031 678-1676 limits assumed, chain 2 of 2): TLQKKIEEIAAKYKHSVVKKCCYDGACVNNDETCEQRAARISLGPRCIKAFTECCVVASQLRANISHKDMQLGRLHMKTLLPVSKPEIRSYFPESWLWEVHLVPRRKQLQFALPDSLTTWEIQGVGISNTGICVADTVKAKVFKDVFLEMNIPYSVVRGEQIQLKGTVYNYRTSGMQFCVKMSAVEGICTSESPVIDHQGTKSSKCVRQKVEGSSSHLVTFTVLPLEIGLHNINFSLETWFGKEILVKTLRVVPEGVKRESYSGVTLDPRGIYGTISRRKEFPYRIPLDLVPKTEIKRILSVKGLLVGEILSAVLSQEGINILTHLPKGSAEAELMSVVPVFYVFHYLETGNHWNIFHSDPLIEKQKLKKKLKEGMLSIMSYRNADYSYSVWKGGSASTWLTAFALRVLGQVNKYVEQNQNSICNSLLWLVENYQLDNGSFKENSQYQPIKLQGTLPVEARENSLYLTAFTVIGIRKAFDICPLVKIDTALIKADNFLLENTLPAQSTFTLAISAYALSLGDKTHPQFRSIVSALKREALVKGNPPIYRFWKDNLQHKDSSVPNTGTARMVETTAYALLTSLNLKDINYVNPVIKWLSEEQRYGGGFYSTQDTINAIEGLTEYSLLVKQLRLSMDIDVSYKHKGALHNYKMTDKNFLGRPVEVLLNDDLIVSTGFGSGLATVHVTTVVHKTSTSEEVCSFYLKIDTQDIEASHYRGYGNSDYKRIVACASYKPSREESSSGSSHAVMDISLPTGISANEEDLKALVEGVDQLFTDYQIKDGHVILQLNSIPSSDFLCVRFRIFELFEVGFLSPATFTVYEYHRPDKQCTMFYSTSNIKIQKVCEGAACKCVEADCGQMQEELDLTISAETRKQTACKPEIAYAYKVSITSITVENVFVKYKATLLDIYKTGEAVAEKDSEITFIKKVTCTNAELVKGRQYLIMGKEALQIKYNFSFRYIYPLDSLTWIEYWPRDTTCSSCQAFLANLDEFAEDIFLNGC
Binder,binding result [1],binding result [2]
"humanized 2G1 (VH-11801/VL-1901) (antibody, V domains shown, Human IgG4 mAb with S228P, expressed in CHO cells) VH: QVQLVQSGAEVKKPGASVKVSCKASGYTITDYNLDWVRQAPGQGLEWMGDISPNYGYTIYNQKFKDRVTMTTDTSTSTAYMELRSLRSDDTAVYYCARRDIRYSGNSYKWYFDVWGQGTMVTVSS VL: DIQLTQSPSFLSASVGDRVTITCRTSKSISKYLAWYQQKPGKAPKLLIYSGSTLQSGVPSRFSGSGSGTEFTLTISSLQPEDFATYYCQQHNEYPYTFGQGTKLEIKT",binds,
"humanized 2G1 (VH-16901/VL-1901) (antibody, V domains shown, Human IgG4 mAb with S228P, expressed in CHO cells) VH: QVQLVQSGAEVKKPGSSVKVSCKASGYTITDYNLDWVRQAPGQGLEWMGDISPNYGYTIYNQKFKDRVTITADESTSTAYMELSSLRSEDTAVYYCARRDIRYSGNSYKWYFDVWGQGTMVTVSS VL: DIQLTQSPSFLSASVGDRVTITCRTSKSISKYLAWYQQKPGKAPKLLIYSGSTLQSGVPSRFSGSGSGTEFTLTISSLQPEDFATYYCQQHNEYPYTFGQGTKLEIKT",binds,
"anti-human C5 mAb 9G6 (antibody, V domains shown, Murine hybridoma mAb; entries may include the leader peptide) VH: QIQLVQSGPELKKPGETVKISCKASGYTFTEYPMHWVKQAPGKSFKWMGILYTDTGEPTYAEEFRGRFAFSLETSASTAYLQINNLKNEDTATYFCVHSGYVGYWGQGTTLTVSS VL: DIQMTQSPASLSASVGETVTFTCRASEIIYSYLVWYQQKQGKSPQLLVSNAKTLAEGVPSRFSGSGSGTQFSLKINSLQPEDFGSYYCQHYYGNPPTFGGGTKLEIKR",,binds

# Now from value to binder:
binding result [1],binding result [2],Binder
,binds,"anti-human C5 mAb 11C5 (antibody, V domains shown, Murine hybridoma mAb; entries may include the leader peptide) VH: EVQLVESGGGLVKPGGSLKLSCAASGFTFTTYAMSWVRQTPEKRLEWVATISAGGTYTYYSDNVKGRFTISRDNAKNNLYLQMSHLKSEDTAMFYCARDPDYYGRSPFAYWGQGTLVTVSA VL: EIVLTQSPATLSVTPGESVSLSCRASQSISNNLQWYQQKSHESPRLLIKYASQSISGIPSRFSGSGSGTDFTLSINSVETEDFGMYFCQQSNSWPLTFGGGTKVELKR"
,binds,"anti-human C5 mAb 8E1 (antibody, V domains shown, Murine hybridoma mAb; entries may include the leader peptide) VH: QVQLKESGPGLVAPSQSLSITCTVSGFPLNNYGIHWVRQPPGKGLEWLAVIWSDGRTTYNSALNSRLSISKDNSKSQVFFKMNSLQTDDTAMYYCARHDGRGDYSMDYWGQGTSVTVSS VL: ELVMTQSPASLVVSLGQRATISCRASKGVSTSVYSYMHWYQQKPGQPPKLLIYLASNLESGVPARFSGSGSGTDFSLNIHPVEEEDAATYYCQQSGELPLTFGAGTKLELKR"
